Measured values from US20240124586A1 (WUXI BIOLOGICS IRELAND, published 2024).
Substitutions are numbered along the chain they refer to. Blank lines part the entries; values can stand above or below the binder they belong to.

How the values were obtained:
[1] = biological target: T1, human PD-1 on engineered CHO-S cells (W305-CHO-S.hPro1.C6) (human, UniProt Q15116 25-288); assay: FACS on human PD-1 engineered cells
T1 construct: whole, on cells; also called human PD-1 engineered cells; PD-1+ cells
Method: Engineered human PD-1 expressing cells W305-CHO-S.hPro1.C6 were seeded at 1×10⁵ cells/well in U-bottom 96-well plates (COSTAR 3799). Antibodies with 3.16-fold titration in 1% BSA DPBS from 200 nM to 0.002 nM were added to the cells. The plates were incubated at 4° C. for 1 hour. After wash, […] 1:125 diluted PE-labeled goat anti-human antibody (Jackson 109-115-098) was added to each well and the plates were incubated at 4° C. for 1 hour. The binding of the antibodies onto the cells was tested by flow cytometry and the mean fluorescence intensity (MFI) was analyzed by FlowJo.

[2] = biological target: T2, human CTLA-4 on engineered 293F cells (W316-293F.hPro1.FL) (human, UniProt P16410 36-223); assay: FACS on human CTLA-4 engineered cells
T2 construct: whole, on cells; also called human CTLA-4 engineered cells; CTLA-4+ cells
Method: (§1) 3.16-fold titrated Abs with 1% BSA DPBS from 200 nM to 0.002 nM were added to the cells. Plates were incubated at 4° C. for 1 hour. After wash, […] 1:150 diluted PE-labeled goat anti-human antibody (Jackson 109-115-098) was added to each well and the plates were incubated at 4° C. for 1 hour. The binding of the antibodies onto the cells was tested by flow cytometry and the mean fluorescence intensity (MFI) was analyzed by FlowJo.

[3] = biological target: T2, human CTLA-4 on engineered 293F cells …; assay: FACS on human CTLA-4 engineered cells, against benchmark BMK1
Method: as §1

[4] = biological target: CTLA-4 (competition assays of Example 15) (UniProt P16410 36-161, limits assumed); assay: FACS competition: antibody titrated against CD80 binding to CTLA-4
[5] = biological target: T1, human PD-1 on engineered CHO-S cells …; assay: FACS competition: antibody titrated against human PD-L1 binding to PD-1; falling curve, half-maximal value labelled EC50 on the sheet
Method: In order to test whether the bispecific antibodies could block hPD-L1 binding to hPD-1 protein, a competitive FACS was conducted. […] Plates were incubated at 4° C. for 1 hour. After wash, the binding of W315-hPro1.ECD.mFc to cell expressive human PD-1 was detected by FITC-labeled goat anti-mouse antibody (abcam 98716 1:125). The competition binding of antibodies to the cells was tested by flow cytometry and the mean fluorescence intensity (MFI) was analyzed by FlowJo.

[6] = biological target: T3, human PD-1 ECD mouse Fc fusion (W305-hPro1.ECD.mFc) (human, UniProt Q15116 25-170); assay: dual-binding ELISA: human PD-1 ECD coated, antibody titrated, bound antibody detected with biotinylated human CTLA-4 ECD and streptavidin-HRP
T3 construct: extracellular domain; In-house protein; also called hPD-1-ECD; human PD-1 coated on the plate
Method: In order to test whether the bispecific antibodies could bind to both hPD-1 and hCTLA-4, an ELISA assay was developed as below. A 96-well ELISA plate (Nunc MaxiSorp, ThermoFisher) was coated overnight at 4° C. with 0.5 μg/ml antigen-1 (hPD-1-ECD, W305-hPro1.ECD.mFc) in carbonate-bicarbonate buffer. After a 1 hour blocking step with 2% (w/v) bovine serum albumin (Pierce) dissolved in PBS, serial dilutions of the different PD-1×CTLA-4 bispecific antibodies in PBS containing 2% BSA PBS were incubated on the plates for 1 hour at room temperature. Following the incubation, plates were washed three times with 300 μL per well of PBS containing 0.5% (v/v) Tween 20. […] After washing the plates three times, Streptavidin-HRP (Lifetechnologies, #SNN1004) (1:20000 diluted) was added and incubated on the plates for 1 hour at room temperature. After washing six times with […] per well of PBS containing 0.5% (v/v) Tween 20, 100 μL tetramethylbenzidine (TMB) substrate was added for the detection per well. The reaction was stopped after approximately 5 minutes through the addition of […] per well of 2 M HCl. The absorbance of the wells was measured at 450 nm with a multiwall plate reader (SpectraMax® M5e).

[7] = biological target: T4, FcγRI (UniProt P12314 16-288, limits assumed); assay: SPR (Biacore), receptor captured on anti-his chip, 1:1 model
T4 construct: His-tagged by the capture method
Method: (§2) Antibody binding affinity to FcγRs was detected using Biacore T200 (or Biacore 8K). Each receptor was captured on an anti-his antibody immobilized CM5 sensor chip (GE). Antibodies at different concentrations were injected over the sensor chip at a flow rate of 30 uL/min for an association phase of 60 s, followed by 60 s dissociation. The chip was then regenerated by 10 mM glycine (pH 1.5) after each binding cycle.
(§3) The sensorgrams of blank surface and buffer channel were subtracted from the test sensorgrams. The experimental data was fitted by 1:1 model using Langmiur analysis (for FcγRI) or steady state model (for other receptors). Molecular weight of 150 KDa was used to calculate the molar concentration of antibodies.

[8] = biological target: T5, FcγRIIa (H167) (UniProt P12318 36-218, limits assumed); assay: SPR (Biacore), receptor captured on anti-his chip, steady state model
T5 sequence (looked up): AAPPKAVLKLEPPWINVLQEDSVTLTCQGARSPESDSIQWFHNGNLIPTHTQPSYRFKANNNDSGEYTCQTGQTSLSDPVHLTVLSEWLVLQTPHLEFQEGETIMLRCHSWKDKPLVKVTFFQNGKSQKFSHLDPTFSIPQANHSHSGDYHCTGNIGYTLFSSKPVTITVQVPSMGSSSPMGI
Method: as §2, §3

[9] = biological target: T6, FcγRIIa (R167) (UniProt P12318 36-218, limits assumed); assay: as above
T6 sequence (looked up): T5 sequence (looked up) with H132R
Method: as §2, §3

[10] = biological target: T7, FcγRIIb (UniProt P31994 46-217, limits assumed); assay: as above
T7 sequence (looked up): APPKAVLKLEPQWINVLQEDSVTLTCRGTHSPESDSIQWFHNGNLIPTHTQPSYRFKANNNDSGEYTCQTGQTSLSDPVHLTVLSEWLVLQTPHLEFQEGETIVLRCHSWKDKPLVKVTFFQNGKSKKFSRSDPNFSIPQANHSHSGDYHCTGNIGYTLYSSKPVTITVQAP
Method: as §2, §3

[11] = biological target: FcγRIIIa (F176) (UniProt P08637 17-208); assay: as above
Method: as §2, §3

[12] = biological target: FcγRIIIa (V176) (UniProt P08637 17-208); assay: as above
Method: as §2, §3

[13] = biological target: FcγRIIIb (UniProt O75015 17-200, limits assumed); assay: as above
Method: as §2, §3

T1 sequence (Q15116 25-288, change not shown): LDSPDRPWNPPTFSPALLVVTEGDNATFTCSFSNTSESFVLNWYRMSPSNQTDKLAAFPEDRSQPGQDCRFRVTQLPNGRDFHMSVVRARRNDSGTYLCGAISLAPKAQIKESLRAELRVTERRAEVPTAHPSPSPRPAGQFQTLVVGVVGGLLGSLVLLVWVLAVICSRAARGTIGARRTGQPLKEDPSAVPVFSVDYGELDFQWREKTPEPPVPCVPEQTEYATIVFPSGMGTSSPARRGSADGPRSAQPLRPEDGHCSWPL
T2 sequence (P16410 36-223, change not shown): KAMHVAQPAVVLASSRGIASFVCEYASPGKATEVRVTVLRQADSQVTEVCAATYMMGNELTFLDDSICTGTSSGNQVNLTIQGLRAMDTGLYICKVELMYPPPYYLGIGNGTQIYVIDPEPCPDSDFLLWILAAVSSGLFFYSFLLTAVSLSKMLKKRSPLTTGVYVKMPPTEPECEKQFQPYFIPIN
Chain of FcγRIIIb (O75015 17-200 limits assumed): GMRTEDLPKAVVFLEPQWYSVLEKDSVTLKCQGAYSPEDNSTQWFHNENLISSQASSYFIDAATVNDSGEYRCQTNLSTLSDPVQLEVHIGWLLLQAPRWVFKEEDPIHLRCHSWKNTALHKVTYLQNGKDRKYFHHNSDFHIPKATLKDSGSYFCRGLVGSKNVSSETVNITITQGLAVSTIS
Chain of FcγRIIIa (V176) (P08637 17-208 F176V limits assumed): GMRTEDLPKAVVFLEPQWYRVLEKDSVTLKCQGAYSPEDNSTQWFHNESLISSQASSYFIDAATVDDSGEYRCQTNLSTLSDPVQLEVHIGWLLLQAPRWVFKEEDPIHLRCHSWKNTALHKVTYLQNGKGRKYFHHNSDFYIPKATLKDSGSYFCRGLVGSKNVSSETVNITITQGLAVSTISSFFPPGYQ
Chain of CTLA-4 (competition assays of Example 15) (P16410 36-161 limits assumed): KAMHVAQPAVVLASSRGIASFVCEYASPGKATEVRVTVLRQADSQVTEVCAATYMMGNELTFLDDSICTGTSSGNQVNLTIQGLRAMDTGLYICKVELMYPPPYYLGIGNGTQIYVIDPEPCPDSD
Chain of FcγRIIIa (F176) (P08637 17-208 limits assumed): as the sequence (P08637 17-208 F176V limits assumed) above, with V160F counted along it
T3 sequence (Q15116 25-170): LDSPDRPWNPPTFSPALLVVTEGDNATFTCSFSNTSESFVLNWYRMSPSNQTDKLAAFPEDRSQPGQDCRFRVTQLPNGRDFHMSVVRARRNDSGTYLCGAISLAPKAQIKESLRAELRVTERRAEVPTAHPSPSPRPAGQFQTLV
T4 sequence (P12314 16-288 limits assumed): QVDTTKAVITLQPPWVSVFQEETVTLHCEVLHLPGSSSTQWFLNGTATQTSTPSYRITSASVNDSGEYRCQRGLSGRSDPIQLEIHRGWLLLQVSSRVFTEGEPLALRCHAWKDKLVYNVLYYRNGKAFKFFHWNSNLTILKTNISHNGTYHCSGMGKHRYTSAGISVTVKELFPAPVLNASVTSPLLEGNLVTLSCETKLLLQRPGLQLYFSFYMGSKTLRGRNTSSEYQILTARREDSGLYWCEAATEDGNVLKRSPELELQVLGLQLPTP

- EC50 [1]: 1.32 nM
- EC50 [2]: 7.55 nM
- fold improvement of EC50 against the benchmark antibody [3]: 1.6 fold
- IC50 [4]: 0.758 nM
- IC50 [5]: 1.92 nM
- EC50 [6]: 0.071 nM
B1: U6T5.G25.IgG4, bispecific anti-PD-1 x CTLA-4 (as listed in Example 15) (bispecific antibody)
heavy: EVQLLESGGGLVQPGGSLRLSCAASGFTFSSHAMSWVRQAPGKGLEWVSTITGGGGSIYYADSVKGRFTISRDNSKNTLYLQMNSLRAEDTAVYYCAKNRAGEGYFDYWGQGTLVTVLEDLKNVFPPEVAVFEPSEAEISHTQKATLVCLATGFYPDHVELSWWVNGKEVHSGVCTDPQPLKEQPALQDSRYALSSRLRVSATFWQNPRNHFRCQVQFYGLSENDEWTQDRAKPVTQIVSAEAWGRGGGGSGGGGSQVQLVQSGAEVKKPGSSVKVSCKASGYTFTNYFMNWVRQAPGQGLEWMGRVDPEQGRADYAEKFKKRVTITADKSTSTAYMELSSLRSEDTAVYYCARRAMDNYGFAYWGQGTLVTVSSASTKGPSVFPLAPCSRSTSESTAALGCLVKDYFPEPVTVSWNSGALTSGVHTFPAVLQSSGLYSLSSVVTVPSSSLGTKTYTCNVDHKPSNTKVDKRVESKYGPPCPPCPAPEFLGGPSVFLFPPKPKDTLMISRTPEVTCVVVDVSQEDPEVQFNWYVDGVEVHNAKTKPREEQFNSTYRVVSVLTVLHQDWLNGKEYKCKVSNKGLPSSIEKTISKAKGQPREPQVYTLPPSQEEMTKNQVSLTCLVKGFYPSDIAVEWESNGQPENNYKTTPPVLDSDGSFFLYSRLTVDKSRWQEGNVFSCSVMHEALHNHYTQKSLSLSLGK
light 1: SYELTQPLSVSVALGQTARITCGGDNIGNKDVHWYQQKPGQAPVLVIYRDSNRPSGIPEGFSGSNSGNTATLTISRAQAGDEADYYCQVWDSIWVFGGGTKLTVLPDIQNPDPAVYQLRDSKSSDKSVCLFTDFDSQTQVSQSKDSDVYITDKCVLDMRSMDFKSNSAVAWSQKSDFACANAFQNSIIPEDTFFPSPESS
light 2: EIVLTQSPDFQSVTPKEKVTITCSANSALSYMYWYQQKPDQSPKLWVHGTSNLASGVPSRFSGSGSGTDFTLTINSLEAEDAATYYCHHWSNTQWTFGGGTKVEIKRTVAAPSVFIFPPSDEQLKSGTASVVCLLNNFYPREAKVQWKVDNALQSGNSQESVTEQDSKDSTYSLSSTLTLSKADYEKHKVYACEVTHQGLSSPVTKSFNRGEC
notes: kept apart

- Kd [7]: 1.3 nM
- Kd [8]: 3580 nM
- Kd [9]: 4830 nM
- Kd [10]: 8070 nM
- Kd [11]: 2080 nM
- Kd [12]: 644 nM
- Kd [13]: 5160 nM
B2: T3U4.E17-2.(2).uIgG1 (E17-Design_2-QQQQ in wild type IgG1 with knobs-into-holes) (bispecific antibody)
heavy 1: not shown
light 1: DIVMTQSPDSLAVSLGERATINCKSSQSLLNSRTRKNYLAWYQQKPGQPPKLLIYWASTRQSGVPDRFSGSGSGTDFTLTISSLQAEDVAVYYCTQSHTLRTFGGGTKVEIKPDIQNPDPAVYQLRDSKSSDKSVCLFTDFDSQTQVSQSKDSDVYITDKCVLDMRSMDFKSNSAVAWSQKSDFACANAFQNSIIPEDTFFPSPESS
heavy 2: QMQLVQSGPEVKKPGTSVKVSCKASGYAFTSYNMYWVRQARGQRLEWIGYIDPYNGDTTYNQKFKGRVTITRDMSTSTAYMELSSLRSEDTAVYYCLTTAYAMDYWGQGTLVTVSSASTKGPSVFPLAPSSKSTSGGTAALGCLVKDYFPEPVTVSWNSGALTSGVHTFPAVLQSSGLYSLSSVVTVPSSSLGTQTYICNVNHKPSNTKVDKRVEPKSCDKTHTCPPCPAPELLGGPSVFLFPPKPKDTLMISRTPEVTCVVVDVSHEDPEVKFNWYVDGVEVHNAKTKPREEQYNSTYRVVSVLTVLHQDWLNGKEYKCKVSNKALPAPIEKTISKAKGQPREPQVCTLPPSREEMTKNQVSLSCAVKGFYPSDIAVEWESNGQPENNYKTTPPVLDSDGSFFLVSKLTVDKSRWQQGNVFSCSVMHEALHNHYTQKSLSLSPGK
light 2: DIQLTQSPSFLSASVGDRVTITCSASSTVNYMHWYQQKPGKAPKLLIYSTSNLASGVPSRFSGSGSGTEFTLTISSLQPEDFATYYCHQWSSYPYTFGQGTKLEIKRTVAAPSVFIFPPSDEQLKSGTASVVCLLNNFYPREAKVQWKVDNALQSGNSQESVTEQDSKDSTYSLSSTLTLSKADYEKHKVYACEVTHQGLSSPVTKSFNRGEC
notes: Order T3-HC / T3-LC / U4-HC / U4-LC; copies: 1 + 1 + 1 + 1
